Data from paper PMC11952958, “Integrative structural analysis of NF45–NF90 heterodimers reveals architectural rearrangements and oligomerization on binding dsRNA”.

Key:
NF90long;NF45 [1] = target: T1, NF90long;NF45 (Mus musculus;Homo sapiens, UniProt Q9Z1X4;Q12905 1-591;1-390, |); assay: quantitative EDC CLMS; 18-bp complex formation: 30 min on ice, SEC in 20 mM HEPES pH 7.5, 150 mM NaCl, 1 mM DTT; mass photometry at 10-50 nM protein; SAXS and EM buffers not in the material; conditions: protein: recombinant;recombinant; tags: C-terminal 6xHis (non-cleavable);N-terminal GST, removed with 3C protease; copies: 1;1; blunt
NF90long;NF45 [2] = target: T1, NF90long;NF45; assay: SEC and EDC cross-linking (SDS-PAGE, CLMS); protein:RNA 1:1 and 2:1; 18-bp complex formation: 30 min on ice, SEC in 20 mM HEPES pH 7.5, 150 mM NaCl, 1 mM DTT; mass photometry at 10-50 nM protein; SAXS and EM buffers not in the material; conditions: protein: recombinant;recombinant; tags: C-terminal 6xHis (non-cleavable);N-terminal GST, removed with 3C protease; copies: 1;1; blunt
NF90long;NF45 [3] = target: T1, NF90long;NF45; assay: SEC-SAXS; mass photometry; protein:RNA 2:1 and 4:1; RNA saturated at 4:1; 18-bp complex formation: 30 min on ice, SEC in 20 mM HEPES pH 7.5, 150 mM NaCl, 1 mM DTT; mass photometry at 10-50 nM protein; SAXS and EM buffers not in the material; conditions: protein: recombinant;recombinant; tags: C-terminal 6xHis (non-cleavable);N-terminal GST, removed with 3C protease; copies: 1;1; S13 is labelled 3'-5' but pairs only if read 5'-3' (18 bp, 7-nt 3' tails)
NF90long;NF45 [4] = target: T1, NF90long;NF45; assay: SEC-SAXS; mass photometry; not more than 4 heterodimers per RNA (SAXS); up to 3 by mass photometry; 18-bp complex formation: 30 min on ice, SEC in 20 mM HEPES pH 7.5, 150 mM NaCl, 1 mM DTT; mass photometry at 10-50 nM protein; SAXS and EM buffers not in the material; conditions: protein: recombinant;recombinant; tags: C-terminal 6xHis (non-cleavable);N-terminal GST, removed with 3C protease; copies: 1;1; blunt

B1: 25-bp GC-rich dsRNA (CLMS) (dsRNA)
RNA 1: GCCGCGGAGGCCCCGCCGUGGGCCC
RNA 2: GGGCCCACGGCGGGGCCUCCGCGGC
binding result (NF90long;NF45 [1]): binds

B2: 18-bp 2'-fluoro dsRNA (EDC) (XNA)
RNA 1: UCACUUUCAUAAUGCUGG
RNA 2: CCAGCAUUAUGAAAGUGA
modifications: uniform 2'-fluoro (printed beside the top strand; Methods call the duplex 2'-fluorinated)
binding result (NF90long;NF45 [2]): binds

B3: 25-bp dsRNA (SAXS) (dsRNA)
RNA 1: UCACUUUCAUAAUGCUGGUCACUUU
RNA 2: CCAGCAUUAUGAAAGUGACCAGCAU
binding result (NF90long;NF45 [3]): binds

B4: 54-bp dsRNA (SAXS) (dsRNA)
RNA 1: UCACUUUCAUAAUGCUGGUCACUUUCAUAAUGCUGGUCACUUUCAUAAUGCUGG
RNA 2: CCAGCAUUAUGAAAGUGACCAGCAUUAUGAAAGUGACCAGCAUUAUGAAAGUGA
binding result (NF90long;NF45 [4]): binds
